In patent publication US7727950:

Experiments:
[1] = biological target: T1, generic peptide substrate KKLNRTLSFAEPG
T1 chain: KKLNRTLSFAEPG

[2] = biological target: T2, standard peptide substrate GRPRTSSFAEG
T2 chain: GRPRTSSFAEG

[3] = biological target: T3, standard peptide substrate KEAKEKRQEQIAKRRRLSSLRASTSKSGGSQK
T3 chain: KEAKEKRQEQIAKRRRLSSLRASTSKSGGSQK

[4] = biological target: T4, generic peptide substrate RRRLSFAEPG
T4 chain: RRRLSFAEPG

[5] = biological target: T5, standard peptide substrate KKKVSRSGLYRSPSMPENLNRPR
T5 chain: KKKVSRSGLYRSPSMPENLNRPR

[6] = biological target: T6, generic peptide substrate RARTLSFAEPG
T6 chain: RARTLSFAEPG

[7] = biological target: T7, standard peptide substrate KKLRRTLSVA
T7 chain: KKLRRTLSVA

[8] = biological target: T8, standard peptide substrate HMRSAMSGLHLVKRR
T8 chain: HMRSAMSGLHLVKRR

[9] = biological target: T9, standard peptide substrate KKLNRTLSVA
T9 chain: KKLNRTLSVA

[10] = biological target: T10, standard peptide substrate LRRASLG
T10 chain: LRRASLG

B1: protein kinase B alpha (PKBα) (protein)
chain: MDFRSGSPSDNSGAEEMEVSLAKPKHRVTMNEFEYLKLLGKGTFGKVILVKEKATGRYYAMKILKKEVIVAKDEVAHTLTENRVLQNSRHPFLTALKYSFQTHDRLCFVMEYANGGELFFHLSRERVFSEDRARFYGAEIVSALDYLHSEKNVVYRDLKLENLMLDKDGHIKITDFGLCKEGIKDGATMKTFCGTPEYLAPEVLEDNDYGRAVDWWGLGVVMYEMMCGRLPFYNQDHEKLFELILMEEIRFPRTLGPEAKSLLSGLLKKDPKQRLGGGSEDAKEIMQHRFFAGIVWQHVYEKKLSPPFKPQVTSETDTRYFDEEFTAQMITITPPDQDDSMECVDSERRPHFPQFSYSASGTA
With B1 the Km [1] was 2 µM and the Km [2] was 4 µM.

B2: cGMP-dependent protein kinase (PKG) (protein)
chain: SELEEDFAKILMLKEERIKELEKRLSEKEEEIQELKRKLHKCQSVLPVPSTHIGPRTTRAQGISAEPQTYRSFHDLRQAFRKFTKSERSKDLIKEAILDNDFMKNLELSQIQEIVDCMYPVEYGKDSCIIKEGDVGSLVYVMEDGKVEVTKEGVKLCTMGPGKVFGELAILYNCTRTATVKTLVNVKLWAIDRQCFQTIMMRTGLIKHTEYMEFLKSVPTFQSLPEEILSKLADVLEETHYENGEYIIRQGARGDTFFIISKGKVNVTREDSPNEDPVFLRTLGKGDWFGEKALQGEDVRTANVIAAEAVTCLVIDRDSFKHLIGGLDDVSNKAYEDAEAKAKYEAEAAFFANLKLSDFNIIDTLGVGGFGRVELVQLKSEESKTFAMKILKKRHIVDTRQQEHIRSEKQIMQGAHSDFIVRLYRTFKDSKYLYMLMEACLGGELWTILRDRGSFEDSTTRFYTACVVEAFAYLHSKGIIYRDLKPENLILDHRGYAKLVDFGFAKKIGFGKKTWTFCGTPEYVAPEIILNKGHDISADYWSLGILMYELLTGSPPFSGPDPMKTYNIILRGIDMIEFPKKIAKNAANLIKKLCRDNPSERLGNLKNGVKDIQKHKWFEGFNWEGLRKGTLTPPIIPSVASPTDTSNFDSFPEDNDEPPPDDNSGWDIDF
Work on B2 yielded a Km [3] of 5 µM and a Km [4] of 50 µM.

B3: Checkpoint Kinase 1 (CHK1) (protein)
chain: MAVPFVEDWDLVQTLGEGAYGEVQLAVNRVTEEAVAVKIVDMKRAVDCPENIKKEICINKMLNHENVVKFYGHRREGNIQYLFLEYCSGGELFDRIEPDIGMPEPDAQRFFHQLMAGVVYLHGIGITHRDIKPENLLLDERDNLKISDFGLATVFRYNNRERLLNKMCGTLPYVAPELLKRREFHAEPVDVWSCGIVLTAMLAGELPWDQPSDSCQEYSDWKEKKTYLNPWKKIDSAPLALLHKILVENPSARITIPDIKKDRWYNKPLKKGAKRPRVTSGGVSESPSGFSKHIQSNLDFSPVNSASSEENVKYSSSQPEPRTGLSLWDTSPSYIDKLVQGISFSQPTCPDHMLLNSQLLGTPGSSQNPWQRLVKRMTRFFTKLDADKSYQCLKETCEKLGYQWKKSCMNQVTISTTDRRNNKLIFKVNLLEMDDKILVDFRLSKGDGLEFKRHFLKIKGKLIDIVSSQKIWLPAT
Protein B3 has a Km [5] of 5 µM and a Km [6] of 5 µM.

B4: serum and glucocorticoid-induced kinase 1 (SGK1[S422D] and lacking the N-terminal 59 residues) (protein)
chain: ISQPQEPELMNANPSPPPSPSQQINLGPSSNPHAKPSDFHFLKVIGKGSFGKVLLARHKAEEVFYAVKVLQKKAILKKKEEKHIMSERNVLLKNVKHPFLVGLHFSFQTADKLYFVLDYINGGELFYHLQRERCFLEPRARFYAAEIASALGYLHSLNIVYRDLKPENILLDSQGHIVLTDFGLCKENIEHNSTTSTFCGTPEYLAPEVLHKQPYDRTVDWWCLGAVLYEMLYGLPPFYSRNTAEMYDNILNKPLQLKPNITNSARHLLEGLLQKDRTKRLGAKDDFMEIKSHVFFSLINWDDLINKKITPPFNPNVSGPNDLRHFDPEFTEEPVPNSIGKSPDSVLVTASVKEAAEAFLGFDYAPPTDSFL
In the case of B4, the Km [1] is reported as 4 µM and the Km [2] is reported as 4 µM.

B5: p38 regulated/activated kinase (PRAK) (protein)
chain: MSEESDMDKAIKETSILEEYSINWTQKLGAGISGPVRVCVKKSTQERFALKILLDRPKARNEVRLHMMCATHPNIVQIIEVFANSVQFPHESSPRARLLIVMEMMEGGELFHRISQHRHFTEKQASQVTKQIALALRHCHLLNIAHRDLKPENLLFKDNSLDAPVKLCDFGFAKIDQGDLMTPQFTPYYVAPQVLEAQRRHQKEKSGIIPTSPTPYTYNKSCDLWSLGVIIYVMLCGYPPFYSKHHSRTIPKDMRRKIMTGSFEFPEEEWSQISEMAKDVVRKLLKVKPEERLTIEGVLDHPWLNSTEALDNVLPSAQLMMDKAVVAGIQQAHAEQLANMRIQDLKVSLKPLHSVNNPILRKRKLLGTKPKDSVYIHDHENGAEDSNVALEKLRDVIAQCILPQAGKGENEDEKLNEVMQEAWKYNRECKLLRDTLQSFSWNGRGFTDKVDRLKLAEIVKQVIEEQTTSHESQ
With B5 the Km [7] was greater than 100 µM and the Km [6] was 40 µM.

B6: AMP-activated protein kinase (AMPK) (protein)
chain: MAEKQKHDGRVKIGHYVLGDTLGVGTFGKVKIGEHQLTGHKVAVKILNRQKIRSLDVVGKIKREIQNLKLFRHPHIIKLYQVISTPTDFFMVMEYVSGGELFDYICKHGRVEEVEARRLFQQILSAVDYCHRHMVVHRDLKPENVLLDAQMNAKIADFGLSNMMSDGEFLRTSCGSPNYAAPEVISGRLYAGPEVDIWSCGVILYALLCGTLPFDDEHVPTLFKKIRGGVFYIPEYLNRSIATLLMHMLQVDPLKRATIKDIREHEWFKQDLPSYLFPEDPSYDANVIDDEAVKEVCEKFECTESEVMNSLYSGDPQDQLAVAYHLIIDNRRIMNQASEFYLASSPPTGSFMDDMAMHIPPGLKPHPERMPPLIADSPKARCPLDALNTTKPKSLAVKKAKWHLGIRSQSKPYDIMAEVYRAMKQLDFEWKVVNAYHLRVRRKNPVTGNYVKMSLQLYLVDNRSYLLDFKSIDDEVVEQRSGSSTPQRSCSAAGLHRPRSSVDSSTAENHSLSGSLTGSLTGSTLSSASPRLGSHTMDFFEMCASLITALAR
Protein B6 has a Km [8] of 80 µM and a Km [6] of 75 µM.

B7: rat Rho-dependent protein kinase ROCKII[1-543] (protein)
chain: MSRPPPTGKMPGAPEAAAGDGAGAGRQRKLEALIRDPRSPINVESLLDGLNSLVLDLDFPALRKNKNIDNFLNRYEKIVKKIRGLQMKAEDYDVVKVIGRGAFGEVQLVRHKASQKVYAMKLLSKFEMIKRSDSAFFWEERDIMAFANSPWVVQLFCAFQDDRYLYMVMEYMPGGDLVNLMSNYDVPEKWAKFYTAEVVLALDAIHSMGLIHRDVKPDNMLLDKHGHLKLADFGTCMKMDETGMVHCDTAVGTPDYISPEVLKSQGGDGYYGRECDWWSVGVFLFEMLVGDTPFYADSLVGTYSKIMDHKNSLCFPEDTEISKHAKNLICAFLTDREVRLGRNGVEEIKSASFFKNDQWNWDNIRETAAPVVPELSSDIDSSNFDDIEDDKGDVETFPIPKAFVGNQLPFIGFTYFRENLLLSDSPPCRENDAIQTRKSEESQEIQKKLYALEEHLSSEVQAKEELEQKCKSINTRLEKTAKELEEEITFRKNVESTLRQLEREKALLQHKNAEYQRKADHEADKKRNLENDVNSLKDQLEDL
B7 was tested, and the Km [3] was 5 µM and the Km [4] was greater than 100 µM.

B8: MAPKAP-K3 (protein)
chain: MDGETAEEQGGPVPPPVAPGGPGLGGAPGGRREPKKYAVTDDYQLSKQVLGLGVNGKVLECFHRRTGQKCALKLLYDSPKARQEVDHHWQASGGPHIVCILDVYENMHHGKRCLLIIMECMEGGELFSRIQERGDQAFTEREAAEIMRDIGTAIQFLHSHNIAHRDVKPENLLYTSKEKDAVLKLTDFGFAKETTQNALQTPCYTPYYVAPEVLGPEKYDKSCDMWSLGVIMYILLCGFPPFYSNTGQAISPGMKRRIRLGQYGFPNPEWSEVSEDAKQLIRLLLKTDPTERLTITQFMNHPWINQSMVVPQTPLHTARVLQEDKDHWDEVKEEMTSALATMRVDYDQVKIKDLKTSNNRLLNKRRKKQAGSSSASQGCNNQ
B8 gave a Km [9] of 18 µM and a Km [6] of 30 µM.

B9: p70 ribosomal S6 kinase 1 (S6K1[T412E], lacking the C-terminal 104 residues) (protein)
chain: MRRRRRRDGFYPAPDFRDREAEDMAGVFDIDLDQPEDAGSEDELEEGGQLNESMDHGGVGPYELGMEHCEKFEISETSVNRGPEKIRPECFELLRVLGKGGYGKVFQVRKVTGANTGKIFAMKVLKKAMIVRNAKDTAHTKAERNILEEVKHPFIVDLIYAFQTGGKLYLILEYLSGGELFMQLEREGIFMEDTACFYLAEISMALGHLHQKGIIYRDLKPENIMLNHQGHVKLTDFGLCKESIHDGTVTHTFCGTIEYMAPEILMRSGHNRAVDWWSLGALMYDMLTGAPPFTGENRKKTIDKILKCKLNLPPYLTQEARDLLKKLLKRNAASRLGAGPGDAGEVQAHPFFRHINWEELLARKVEPPFKPLLQSEEDVSQFDSKFTRQTPVDSPDDSTLSESANQVFLGFEYVAPSVLES
B9 gave a Km [1] of 6 µM and a Km [10] of 8 µM.
